Experimental data reported in patent publication US20240376183A1 (UNIVERSIT T ZU K LN, published 2024).

B1: antibody 2-12 (antibody, V domains shown)
VH: QLVQSGGGVRRPGASVKISCETPEDTFTKYWLHWLRQAPGQGLEWMGVVSPHGGRPMFAFEFRDRLTLTRDIHTTTHFMELRGLTSDDTAVYYCARDPFGETFRGHDQPYRMDVWGGGTTIVVSS
VL: EPVLTQSPGTLSVSPGEGATLSCRARQGFSADHVAWFQKKPGRPPRLLIFEASRRASGTPERFSGSGSGPEYTLTITRVEAEDFAVYYCQSYGSITPLVFGGGTRVDVK
B2: antibody 1-18 (antibody, V domains shown)
VH: QGRLFQSGAEVKRPGASVRISCRADDDPYTDDDTFTKYWTHWIRQAPGQRPEWLGVISPHFARPIYSYKFRDRLTLTRDSSLTAVYLELKGLQPDDSGIYFCARDPFGDRAPHYNYHMDVWGGGTAVIVSS
VL: EVVLTQSPAILSVSPGDRVILSCRASQGLDSSHLAWYRFKRGQIPTLVIFGTSNRARGTPDRFSGSGSGADFTLTISRVEPEDFATYYCQRYGGTPITFGGGTTLDKK
B3: antibody 1-55 (antibody, V domains shown)
VH: QRRLFQSGTEVKRPGASVKISCRADDDPYTDDDTFTKYYTHWIRQAPGQPPEWLGVISPHFARPIYSYKFRDRLTLTRDSSLTAVYFELRGLQPDDTGIYFCARDPFGDMYPHYNYHMDVWGGGTTVIVSA
VL: EAVLTQSPAILSVSPGDRVILSCKASEGLSSSDLAWYRFKGGQIPTLVIFGASNRARGTPDRFSGSGSGTDFTLTINRVEPEDFATYYCQRYGGTPITFGGGTTLDKK

Target: HIV-1 Env protein of virus strain 89-F1_2_25 (HIV-1)
Test: cell-based or functional assay

| Binder | IC50, TZM-bl pseudovirus neutralization assay |
| --- | --- |
| B1 | 6 ng/mL |
| B2 | 7 ng/mL |
| B3 | 14 ng/mL |
